Laboratory results reported in patent publication US20220280636A1.

Experiments:
[1] = molecular target: guinea pig whole molecule IgG (guinea pig); assay: SPR; IgG amine coupled to CM5 chip, control flowed at 490 ug/ml at the end of the serial flows; end-point RU of association phase
[2] = molecular target: human IgG Fc (human); assay: as above
[3] = molecular target: human whole molecule IgG (human); assay: as above
[4] = molecular target: mouse whole molecule IgG (mouse); assay: as above
[5] = molecular target: rabbit whole molecule IgG (rabbit); assay: as above
[6] = molecular target: human IgG Fc (human); assay: SPR; IgG amine-coupled to CM5 chip, control flowed at 490 ug/ml at the end of the serial flows; end-point RU of association phase
[7] = molecular target: human whole molecule IgG (human); assay: as above
[8] = molecular target: rabbit whole molecule IgG (rabbit); assay: as above
[9] = molecular target: human IgG Fc (human); assay: as above; remark: listed apart in the source
[10] = molecular target: human whole molecule IgG (human); assay: as above; remark: listed apart in the source
[11] = molecular target: rabbit whole molecule IgG (rabbit); assay: as above; remark: listed apart in the source
[12] = molecular target: guinea pig whole molecule IgG (guinea pig); assay: SPR; IgG amine coupled to CM5 chip, control flowed at 490 ug/ml at the start of the serial flows; end-point RU of association phase
[13] = molecular target: human IgG Fc (human); assay: as above
[14] = molecular target: human whole molecule IgG (human); assay: as above
[15] = molecular target: mouse whole molecule IgG (mouse); assay: as above
[16] = molecular target: rabbit whole molecule IgG (rabbit); assay: as above
[17] = molecular target: human whole molecule IgG (human); assay: SPR; IgG amine-coupled to CM5 chip, control flowed at 490 ug/ml at the start of the serial flows; end-point RU of association phase
[18] = molecular target: rabbit whole molecule IgG (rabbit); assay: as above
[19] = molecular target: human IgG Fc (human); assay: as above
[20] = molecular target: human whole molecule IgG (human); assay: as above; remark: listed apart in the source
[21] = molecular target: rabbit whole molecule IgG (rabbit); assay: as above; remark: listed apart in the source
[22] = molecular target: guinea pig whole molecule IgG (guinea pig); assay: SPR; IgG amine coupled to CM5 chip, construct flowed at 750 ug/ml; end-point RU of association phase
[23] = molecular target: human IgG Fc (human); assay: as above
[24] = molecular target: human whole molecule IgG (human); assay: as above
[25] = molecular target: mouse whole molecule IgG (mouse); assay: as above
[26] = molecular target: rabbit whole molecule IgG (rabbit); assay: as above

B1: gE-1t 411 (protein)
chain: GTPKTSWRRVSVGEDVSLLPAPGPTGRGPTQKLLWAVEPLDGCGPLHPSWVSLMPPKQVPETVVDAACMRAPVPLAMAYAPPAPSATGGLRTDFVWQERAAVVNRSLVIHGVRETDSGLYTLSVGDIKDPARQVASVVLVVQPAPVPTPPPTPADYDEDDNDEGEDESLAGTPASGTPRLPPPPAPPRSWPSAPEVSHVRGVTVRMETPEAILFSPGETFSTNVSIHAIAHDDQTYSMDVVWLRFDVPTSCAEMRIYESCLYHPQLPECLSPADAPCAASTWTSRLAVRSYAGCSRTNPPPRCSAEAHMEPVPGLAWQAASVNLEFRDASPQHSGLYLCVVYVNDHIHAWGHITISTAAQYRNAVVEQPLPQRGADLAEPTHPHVGAPPHA
Binder B1 has an RU Post Association [1] of 30 RU, an RU Post Association [2] of 72 RU and an RU Post Association [3] of 144 RU. For the same binder, the RU Post Association [4] was 8 RU, the RU Post Association [5] was 223 RU and the RU Post Association [6] was 75 RU. It also gave an RU Post Association [7] of 150 RU, an RU Post Association [8] of 221 RU and an RU Post Association [9] of 76 RU. For the same binder, the RU Post Association [10] was 152 RU, the RU Post Association [11] was 228 RU and the RU Post Association [12] was 32 RU. The RU Post Association [13] was 77 RU, the RU Post Association [14] was 147 RU and the RU Post Association [15] was 4 RU. For the same binder, the RU Post Association [16] was 231 RU, the RU Post Association [17] was 145 RU and the RU Post Association [18] was 221 RU. For the same binder, the RU Post Association [19] was 80 RU, the RU Post Association [20] was 157 RU and the RU Post Association [21] was 228 RU.

B2: gE-1t 419 (protein)
chain: GTPKTSWRRVSVGEDVSLLPAPGPTGRGPTQKLLWAVEPLDGCGPLHPSWVSLMPPKQVPETVVDAACMRAPVPLAMAYAPPAPSATGGLRTDFVWQERAAVVNRSLVIHGVRETDSGLYTLSVGDIKDPARQVASVVLVVQPAPVPTPPPTPADYDEDDNDEGEDESLAGTPASGTPRLPPPPAPPRSWPSAPEVSHVRGVTVRMETPEAILFSPGETFSTNVSIHAIAHDDQTYSMDVVWLRFDVPTSCAEMRIYESCLYHPQLPECLSPADAPCAASTWTSRLAVRSYAGCSRTNPPPRCSAEAHMEPVPGLAWQAASVNLEFRDASPQHSGLYLCVVYVNDHIHAWGHITISTAAQYRNAVVEQPLPQRGADLAEPTHPHVGAPPHAPPTHGALR
B2 showed an RU Post Association [22] of 27 RU, an RU Post Association [23] of 69 RU and an RU Post Association [24] of 127 RU. It also gave an RU Post Association [25] of 4 RU and an RU Post Association [26] of 188 RU.
